Measured values as given in PMC3408606 (Thrombosis and haemostasis, 2011).

System: platelets
Assay: Platelet aggregation
Assay type: cell-based, human

B1: ApoD: plasma lipocalin constituent of HDL, recombinant 6xHis, expressed in HEK293 cells (protein, UniProt P05090 21-189, looked up)
Apolipoprotein D: QAFHLGKCPNPPVQENFDVNKYLGRWYEIEKIPTTFENGRCIQANYSLMENGKIKVLNQELRADGTVNQIEGEATPVNLTEPAKLEVKFSWFMPSAPYWILATDYENYALVYSCTCIIQLFHVDFAWILARNPNLPPETVDSLKNILTSNNIDVKKMTVTDQVNCPKLS
modifications: 6xHis tag
did not inhibit: Inhibition of AA-induced platelet aggregation (low doses of AA, ApoD expressed in HEK293 cells) | Inhibition of U46619-induced platelet aggregation (low doses of U46619, ApoD expressed in HEK293 cells) | Inhibition of collagen-induced platelet aggregation (low doses of collagen, ApoD expressed in HEK293 cells)
